Laboratory results: PMC12589307, “^1H, ^13C, and ^15N resonance assignment of the C terminal region of the disordered postsynaptic scaffold protein GKAP” (Biomolecular Nmr Assignments, 2025)
Where no end group is shown, it is not given here.

Biological target: T1, Shank1-PDZ (UniProt Q9WV48, residues 654-768) (UniProt Q9WV48 654-768)
T1 construct: Shank1 PDZ domain, UniProt Q9WV48, residues 654-768; 100% identical with the human homolog Q9Y566 residues 654-768; also called Shank-PDZ; source: production and purification by the protocol of Sánta et al. 2022
T1 sequence (looked up): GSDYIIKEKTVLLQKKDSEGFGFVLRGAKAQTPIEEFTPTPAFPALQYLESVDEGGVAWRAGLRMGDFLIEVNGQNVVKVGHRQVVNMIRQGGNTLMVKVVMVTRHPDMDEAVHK
Assay: BLI; BLItz instrument, NTA biosensors; His-tagged GKAP-Ct43 immobilised as bait at 200 nM; Shank1-PDZ at 4, 2, 1 and 0.5 uM; 50 mM NaPi pH 7.4, 20 mM NaCl, 20 mM imidazole, 0.1% BSA, 0.02% Tween20; room temperature (no temperature control); global fit, average of three independent measurements
Conditions: both partners purified

B1: GKAP-Ct43, C-terminal 43 residues of Rattus norvegicus GKAP, with 6xHis tag kept (domain or fragment)
chain: GSHMSSQRQEARKRLMAAKRAASVRQNSATESAESIEIYIPEAQTRL
modifications: also: 6xHis tag named, not in given chain
notes: vector-derived residues that remain N-terminal after TEV cleavage; in the uncleaved BLI construct they follow the 6xHis tag and the TEV site; Guanylate kinase-associated protein GKAP (rGKAP1a), Rattus norvegicus, UniProt P97836, residues 950-992; 100% identical to human DLGAP1 O14490 residues 935-977; Modified pET-15b vector with 6xHis tag and TEV site; also called rGKAP1a C-terminus; source: TEV …
**Q.** B1 was tested. Which Kd did it give?
**A.** 3.1 ± 0.7 µM
